Positions count from the first letter of the chain named. Non-standard residues stand in square brackets, D forms with d. No end group written: not given here. pY = N[C@@H](Cc1ccc(OP(=O)(O)O)cc1)C(=O)O
T1: GST-Tenc1 SH2 domain (human, UniProt Q63HR2 1140-1247)
T1 construct: source: E. coli BL21, purified (glutathione sepharose, NAP-10)
T1 sequence (looked up): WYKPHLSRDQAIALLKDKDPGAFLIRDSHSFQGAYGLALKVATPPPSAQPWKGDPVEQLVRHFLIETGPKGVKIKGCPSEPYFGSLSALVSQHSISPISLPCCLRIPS

T2: GST-Abl1 SH2 domain (human, UniProt P00519 127-217)
T2 construct: SH2 domain of Abl1; source: E. coli BL21, purified (glutathione sepharose, NAP-10)
T2 sequence (looked up): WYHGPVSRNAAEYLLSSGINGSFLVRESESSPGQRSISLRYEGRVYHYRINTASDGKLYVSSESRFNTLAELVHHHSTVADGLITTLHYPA

T3: GST-Abl2 SH2 domain (human, UniProt P42684 173-263)
T3 construct: SH2 domain of Abl2; source: E. coli BL21, purified (glutathione sepharose, NAP-10)
T3 sequence (looked up): T2 sequence (looked up) with N9S, G18L, R35L, A53T, S54A, L58V, S61T, S62A, N67S, I84V

T4: GST-Sh2d1b SH2 domain (human, UniProt O14796 5-101)
T4 construct: SH2 domain of Sh2d1b (Eat-2); also called Eat-2; source: E. coli BL21, purified (glutathione sepharose, NAP-10)
T4 sequence (looked up): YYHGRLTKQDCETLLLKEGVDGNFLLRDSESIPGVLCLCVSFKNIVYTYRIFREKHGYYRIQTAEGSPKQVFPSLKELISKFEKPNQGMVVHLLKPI

T5: GST-Vav1 SH2 domain (human, UniProt P15498 671-765)
T5 construct: SH2 domain of Vav1; source: E. coli BL21, purified (glutathione sepharose, NAP-10)
T5 sequence (looked up): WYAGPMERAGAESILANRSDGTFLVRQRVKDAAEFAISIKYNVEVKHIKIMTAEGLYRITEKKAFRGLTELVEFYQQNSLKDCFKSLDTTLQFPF

T6: GST-Shc1 SH2 domain (human, UniProt P29353 488-579)
T6 construct: SH2 domain of Shc1; source: E. coli BL21, purified (glutathione sepharose, NAP-10)
T6 sequence (looked up): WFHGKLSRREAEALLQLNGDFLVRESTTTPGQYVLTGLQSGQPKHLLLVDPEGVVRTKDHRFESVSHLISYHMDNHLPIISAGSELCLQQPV

T7: GST-Ship2 SH2 domain (human, UniProt O15357 21-117)
T7 construct: SH2 domain of Ship2; source: E. coli BL21, purified (glutathione sepharose, NAP-10)
T7 sequence (looked up): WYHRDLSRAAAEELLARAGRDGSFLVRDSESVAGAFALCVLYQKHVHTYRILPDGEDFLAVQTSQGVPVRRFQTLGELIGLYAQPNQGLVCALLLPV

T8: GST-Itk SH2 domain (human, UniProt Q08881 239-338)
T8 construct: SH2 domain of Itk; source: E. coli BL21, purified (glutathione sepharose, NAP-10)
T8 sequence (looked up): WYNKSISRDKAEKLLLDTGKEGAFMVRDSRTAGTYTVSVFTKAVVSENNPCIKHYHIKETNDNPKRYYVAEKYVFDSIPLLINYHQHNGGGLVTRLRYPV

T9: GST-Sh3bp2 SH2 domain (human, UniProt P78314 457-555)
T9 construct: SH2 domain of Sh3bp2; source: E. coli BL21, purified (glutathione sepharose, NAP-10)
T9 sequence (looked up): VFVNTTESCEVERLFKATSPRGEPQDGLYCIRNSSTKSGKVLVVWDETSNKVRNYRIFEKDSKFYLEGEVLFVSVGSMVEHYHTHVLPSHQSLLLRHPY

B1: IRS-1 (Y896) phosphopeptide SPGEpYVNIEFG, Rhodamine B-labelled (peptide)
peptide: SPGE[pY]VNIEFG
modifications: also: Rhodamine B label, site not given here
notes: IRS-1 around Y896; source: synthetic peptide (FMOC chemistry), purified by LC/MS
B2: FGFR3 (Y760) phosphopeptide STDEpYLDLSAP, Rhodamine B-labelled (peptide)
peptide: STDE[pY]LDLSAP
modifications: also: Rhodamine B label, site not given here
notes: FGFR3 around Y760; source: synthetic peptide (FMOC chemistry), purified by LC/MS
B3: FGFR1 (Y463) phosphopeptide GVSEpYELPEDP, Rhodamine B-labelled (peptide)
peptide: GVSE[pY]ELPEDP
modifications: not fully specified (N-terminus); also: Rhodamine B label, site not given here
notes: FGFR1 around Y463; also called FGFR1 pY-463; source: synthetic peptide (FMOC chemistry), purified by LC/MS
B4: p130Cas (Y362) phosphopeptide AEDVpYDVPPPA, Rhodamine B-labelled (peptide)
peptide: AEDV[pY]DVPPPA
modifications: not fully specified (N-terminus); also: Rhodamine B label, site not given here
notes: p130Cas (BCAR1) around Y362; source: synthetic peptide (FMOC chemistry), purified by LC/MS
B5: p62DOK1 (Y398) phosphopeptide KEEGpYELPYNP, Rhodamine B-labelled (peptide)
peptide: KEEG[pY]ELPYNP
modifications: not fully specified (N-terminus); also: Rhodamine B label, site not given here
notes: p62DOK1 around Y398; source: synthetic peptide (FMOC chemistry), purified by LC/MS
B6: p130Cas (Y234) peptide EQDEYDIPRHL, SPOT array (peptide)
peptide: EQDE[pY]DIPRHL
modifications: also: membrane-bound on SPOT array
notes: p130Cas (BCAR1) around Y234; source: synthetic peptide, SPOT synthesis on cellulose membrane
B7: IRS-1 (Y1179) phosphopeptide NGLNpYIDLDLV, Rhodamine B-labelled (peptide)
peptide: NGLN[pY]IDLDLV
modifications: not fully specified (N-terminus); also: Rhodamine B label, site not given here
notes: IRS-1 around Y1179; source: synthetic peptide (FMOC chemistry), purified by LC/MS

Experiments:
Conditions in all cases: both partners purified
GST-Grb2 SH2 domain = target: T10, GST-Grb2 SH2 domain (human, UniProt P62993 60-152); test: fluorescence polarisation; Rhodamine B-labelled peptide in solution with SH2 domain; Beacon 2000; as previously described [40]
T10 construct: SH2 domain of Grb2; source: E. coli BL21, purified (glutathione sepharose, NAP-10)
T10 sequence (P62993 60-152): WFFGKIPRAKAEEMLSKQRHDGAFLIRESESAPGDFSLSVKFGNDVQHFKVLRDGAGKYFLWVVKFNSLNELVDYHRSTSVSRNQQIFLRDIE

GST-Tenc1 SH2 domain = target: T1, GST-Tenc1 SH2 domain; test: as above
GST-Abl1 SH2 domain = target: T2, GST-Abl1 SH2 domain; test: as above
GST-Abl2 SH2 domain = target: T3, GST-Abl2 SH2 domain; test: as above
GST-Sh2b SH2 domain = target: T11, GST-Sh2b SH2 domain (human, UniProt Q9NRF2 527-625); test: as above
T11 construct: SH2 domain of Sh2b; source: E. coli BL21, purified (glutathione sepharose, NAP-10)

GST-Crk SH2 domain = target: T12, GST-Crk SH2 domain (human, UniProt P46108 13-118); test: as above
T12 construct: SH2 domain of Crk; source: E. coli BL21, purified (glutathione sepharose, NAP-10)
T12 sequence (P46108 13-118): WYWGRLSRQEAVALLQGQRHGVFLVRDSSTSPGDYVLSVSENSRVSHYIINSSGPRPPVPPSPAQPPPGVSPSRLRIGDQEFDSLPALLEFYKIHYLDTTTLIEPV

GST-Src SH2 domain = target: T13, GST-Src SH2 domain (human, UniProt P12931 151-248); test: as above
T13 construct: SH2 domain of Src; source: E. coli BL21, purified (glutathione sepharose, NAP-10)

GST-Shb SH2 domain = target: T14, GST-Shb SH2 domain (human, UniProt Q15464 410-504); test: as above
T14 construct: SH2 domain of Shb; source: E. coli BL21, purified (glutathione sepharose, NAP-10)
T14 sequence (Q15464 410-504): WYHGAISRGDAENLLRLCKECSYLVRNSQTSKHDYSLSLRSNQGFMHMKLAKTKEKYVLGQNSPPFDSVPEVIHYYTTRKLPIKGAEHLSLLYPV

GST-Sh2d1b SH2 domain = target: T4, GST-Sh2d1b SH2 domain; test: as above
GST-Nck1 SH2 domain = target: T15, GST-Nck1 SH2 domain (human, UniProt P16333 282-376); test: as above
T15 construct: SH2 domain of Nck1; source: E. coli BL21, purified (glutathione sepharose, NAP-10)

GST-CrkL SH2 domain = target: T16, GST-CrkL SH2 domain (human, UniProt P46109 14-102); test: as above
T16 construct: SH2 domain of CrkL; source: E. coli BL21, purified (glutathione sepharose, NAP-10)
T16 sequence (P46109 14-102): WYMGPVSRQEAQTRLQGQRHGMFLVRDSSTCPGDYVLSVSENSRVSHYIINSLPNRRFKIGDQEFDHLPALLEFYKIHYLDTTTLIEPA

GST-Vav1 SH2 domain = target: T5, GST-Vav1 SH2 domain; test: as above
GST-Shc1 SH2 domain = target: T6, GST-Shc1 SH2 domain; test: as above
GST-Ship2 SH2 domain = target: T7, GST-Ship2 SH2 domain; test: as above
GST-Itk SH2 domain = target: T8, GST-Itk SH2 domain; test: as above
GST-Brk SH2 domain = target: T17, GST-Brk SH2 domain (human, UniProt Q13882 78-170); test: as above
T17 construct: SH2 domain of Brk; source: E. coli BL21, purified (glutathione sepharose, NAP-10)
T17 sequence (Q13882 78-170): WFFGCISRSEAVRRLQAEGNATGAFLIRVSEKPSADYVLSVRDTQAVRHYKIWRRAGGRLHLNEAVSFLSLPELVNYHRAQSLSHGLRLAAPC

GST-Fgr SH2 domain = target: T18, GST-Fgr SH2 domain (human, UniProt P09769 144-241); test: as above
T18 construct: SH2 domain of Fgr; source: E. coli BL21, purified (glutathione sepharose, NAP-10)

GST-Fer SH2 domain = target: T19, GST-Fer SH2 domain (human, UniProt P16591 460-550); test: as above
T19 construct: SH2 domain of Fer; source: E. coli BL21, purified (glutathione sepharose, NAP-10)
T19 sequence (P16591 460-550): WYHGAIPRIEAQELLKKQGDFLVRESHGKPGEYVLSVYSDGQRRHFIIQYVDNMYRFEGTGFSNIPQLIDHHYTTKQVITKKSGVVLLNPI

GST-Sh3bp2 SH2 domain = target: T9, GST-Sh3bp2 SH2 domain; test: as above
GST-Yes SH2 domain = target: T20, GST-Yes SH2 domain (human, UniProt P07947 158-255); test: peptide or protein array; SPOT array of 192 membrane-bound 11-mer phosphotyrosine peptides; GST-SH2 0.25 uM in TBS-T with 5% nonfat milk and 1 mM DTT, 1.5 h, room temperature; anti-GST and Alexa-Fluor-680 secondary, Li-Cor Odyssey; array positive >3X the array mean, array negative <1X, indeterminate between
T20 construct: SH2 domain of the kinase Yes; source: E. coli BL21, purified (glutathione sepharose, NAP-10)
T20 sequence (P07947 158-255): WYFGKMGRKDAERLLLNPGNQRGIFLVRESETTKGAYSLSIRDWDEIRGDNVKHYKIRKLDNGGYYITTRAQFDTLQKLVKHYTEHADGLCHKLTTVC

Row | Binder | Kd (GST-Abl1 SH2 domain) [µM] | Kd (GST-Abl2 SH2 domain) [µM] | Kd (GST-Crk SH2 domain) [µM] | Kd (GST-Src SH2 domain) [µM] | Kd (GST-Nck1 SH2 domain) [µM] | Kd (GST-CrkL SH2 domain) [µM] | other results
1 | B1 | 7.48 | 3.66 | > 20 | 2.21 |  |  | Kd (GST-Grb2 SH2 domain): 0.8 µM; Kd (GST-Tenc1 SH2 domain): 24 µM; Kd (GST-Sh2b SH2 domain): 3.58 µM
2 | B2 |  | 27 |  |  |  |  | Kd (GST-Shb SH2 domain): > 50 µM; Kd (GST-Sh2d1b SH2 domain): 5.3 µM
3 | B3 |  |  | 44 | 6.85 | 2.45 | > 50 | Kd (GST-Vav1 SH2 domain): 1.87 µM
4 | B4 |  | 14 | 0.35 |  | 0.93 | 0.99 | Kd (GST-Shc1 SH2 domain): 32.8 µM; Kd (GST-Ship2 SH2 domain): 16.5 µM
5 | B5 | 5.77 | 3.47 | 23.7 | 5.06 | 4.37 |  | Kd (GST-Shc1 SH2 domain): 5.74 µM; Kd (GST-Itk SH2 domain): 5.43 µM; Kd (GST-Brk SH2 domain): 0.42 µM; Kd (GST-Fgr SH2 domain): 2.04 µM; Kd (GST-Fer SH2 domain): 13.3 µM; Kd (GST-Vav1 SH2 domain): 4.73 µM; Kd (GST-Sh3bp2 SH2 domain): 1.68 µM
6 | B6 |  |  |  |  |  |  | binding result (GST-Yes SH2 domain): binds
7 | B7 | 22.2 |  |  | 9.94 |  | > 50 | Kd (GST-Grb2 SH2 domain): > 50 µM
